# Key:
# [1] = biological target: human platelet thrombospondin (thrombospondin-1) (human) (UniProt P07996); test: sandwich ELISA, Ab-4 capture, Ab-8 detection; analyte at 100.0 ng/mL
# [2] = biological target: recombinant human TSP fragment of ~140 kDa engineered to lack the N-terminal heparin-binding domain (human); test: as above
# [3] = biological target: human platelet thrombospondin (thrombospondin-1) (human) (UniProt P07996); test: sandwich ELISA, Ab-4 capture, Ab-8 detection; analyte at 12.50 ng/mL
# [4] = biological target: recombinant human TSP fragment of ~140 kDa engineered to lack the N-terminal heparin-binding domain (human); test: as above
# [5] = biological target: human platelet thrombospondin (thrombospondin-1) (human) (UniProt P07996); test: sandwich ELISA, Ab-4 capture, Ab-8 detection; analyte at 200.0 ng/mL
# [6] = biological target: recombinant human TSP fragment of ~140 kDa engineered to lack the N-terminal heparin-binding domain (human); test: as above
# [7] = biological target: human platelet thrombospondin (thrombospondin-1) (human) (UniProt P07996); test: sandwich ELISA, Ab-4 capture, Ab-8 detection; analyte at 25.00 ng/mL
# [8] = biological target: recombinant human TSP fragment of ~140 kDa engineered to lack the N-terminal heparin-binding domain (human); test: as above
# [9] = biological target: human platelet thrombospondin (thrombospondin-1) (human) (UniProt P07996); test: sandwich ELISA, Ab-4 capture, Ab-8 detection; analyte at 3.125 ng/mL
# [10] = biological target: recombinant human TSP fragment of ~140 kDa engineered to lack the N-terminal heparin-binding domain (human); test: as above
# [11] = biological target: human platelet thrombospondin (thrombospondin-1) (human) (UniProt P07996); test: sandwich ELISA, Ab-4 capture, Ab-8 detection; analyte at 50.00 ng/mL
# [12] = biological target: recombinant human TSP fragment of ~140 kDa engineered to lack the N-terminal heparin-binding domain (human); test: as above
# [13] = biological target: human platelet thrombospondin (thrombospondin-1) (human) (UniProt P07996); test: sandwich ELISA, Ab-4 capture, Ab-8 detection; analyte at 6.250 ng/mL
# [14] = biological target: recombinant human TSP fragment of ~140 kDa engineered to lack the N-terminal heparin-binding domain (human); test: as above
# Chain of UniProt P07996 (P07996 19-1170 T523A): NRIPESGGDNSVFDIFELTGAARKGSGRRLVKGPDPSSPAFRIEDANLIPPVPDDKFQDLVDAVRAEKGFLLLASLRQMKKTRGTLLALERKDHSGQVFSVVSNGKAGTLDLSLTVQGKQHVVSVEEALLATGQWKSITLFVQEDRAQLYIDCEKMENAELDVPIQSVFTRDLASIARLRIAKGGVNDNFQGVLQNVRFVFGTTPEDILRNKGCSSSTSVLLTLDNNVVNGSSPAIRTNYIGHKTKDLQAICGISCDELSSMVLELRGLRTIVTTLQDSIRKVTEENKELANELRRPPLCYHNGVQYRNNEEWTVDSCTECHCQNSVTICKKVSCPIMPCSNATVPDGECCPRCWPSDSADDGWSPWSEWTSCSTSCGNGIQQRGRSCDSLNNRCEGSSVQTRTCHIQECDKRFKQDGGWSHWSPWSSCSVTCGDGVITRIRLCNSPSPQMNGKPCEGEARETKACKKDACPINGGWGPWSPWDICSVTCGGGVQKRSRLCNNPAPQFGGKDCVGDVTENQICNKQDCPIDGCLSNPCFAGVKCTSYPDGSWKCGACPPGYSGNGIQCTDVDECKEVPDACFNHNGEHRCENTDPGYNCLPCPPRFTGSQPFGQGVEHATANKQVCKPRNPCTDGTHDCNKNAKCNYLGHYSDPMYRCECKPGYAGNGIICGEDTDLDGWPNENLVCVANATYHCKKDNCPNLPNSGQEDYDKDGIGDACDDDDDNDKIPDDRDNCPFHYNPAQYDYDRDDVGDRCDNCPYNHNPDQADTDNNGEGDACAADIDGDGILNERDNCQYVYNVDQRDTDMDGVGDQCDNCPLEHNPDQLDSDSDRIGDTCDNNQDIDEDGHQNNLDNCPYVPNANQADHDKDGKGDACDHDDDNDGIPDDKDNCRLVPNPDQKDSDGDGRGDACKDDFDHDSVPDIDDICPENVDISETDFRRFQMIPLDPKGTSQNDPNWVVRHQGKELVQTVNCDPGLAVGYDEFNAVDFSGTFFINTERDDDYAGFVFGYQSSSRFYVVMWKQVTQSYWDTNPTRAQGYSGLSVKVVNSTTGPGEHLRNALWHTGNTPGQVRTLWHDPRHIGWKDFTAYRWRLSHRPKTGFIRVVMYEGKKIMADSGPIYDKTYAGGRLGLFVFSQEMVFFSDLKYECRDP
substance,measurement,setting,value
TSP Ab-4 (Clone A6.1) (antibody),ELISA OD-450,[1],2.09 OD-450
same,ELISA OD-450,[2],2.2 OD-450
same,ELISA OD-450,[3],0.713 OD-450
same,ELISA OD-450,[4],0.662 OD-450
same,ELISA OD-450,[5],2.5 OD-450
same,ELISA OD-450,[6],2.56 OD-450
same,ELISA OD-450,[7],1.08 OD-450
same,ELISA OD-450,[8],1.17 OD-450
same,ELISA OD-450,[9],0.345 OD-450
same,ELISA OD-450,[10],0.279 OD-450
same,ELISA OD-450,[11],1.57 OD-450
same,ELISA OD-450,[12],1.8 OD-450
same,ELISA OD-450,[13],0.514 OD-450
same,ELISA OD-450,[14],0.4 OD-450
